Laboratory results reported in PMC3177975.
Positions count from the first letter of the chain named. Names may count otherwise.

B1: PoxA (Escherichia coli K-12) (protein)
chain: MSETASWQPSASIPNLLKRAAIMAEIRRFFADRGVLEVETPCMSQATVTDIHLVPFETRFVGPGHSQGMNLWLMTSPEYHMKRLLVAGCGPVFQLCRSFRNEEMGRYHNPEFTMLEWYRPHYDMYRLMNEVDDLLQQVLDCPAAESLSYQQAFLRYLEIDPLSADKTQLREVAAKLDLSNVADTEEDRDTLLQLLFTFGVEPNIGKEKPTFVYHFPASQASLAQISTEDHRVAERFEVYYKGIELANGFHELTDAREQQQRFEQDNRKRAARGLPQHPIDQNLIEALKVGMPDCSGVALGVDRLVMLALGAETLAEVIAFSVDRA
B2: PoxA (Escherichia coli K-12; A298G) (protein)
chain: B1 chain with A298G

Tests used:
Conditions in all cases: amino acid activation with ATP; no EF-P stated
[1] = substrate: NCCCC[C@H](N)C(=O)O; test: purified protein
[2] = substrate: NCCC[C@H](N)CC(=O)O; test: steady-state kinetics of amino acid activation; format: biochemical, Escherichia coli
[3] = substrate: NCCC[C@@H](N)CC(=O)O; test: steady-state kinetics of amino acid activation; format: biochemical, Escherichia coli

Protein | Km [1] [µM] | kcat [1] [s⁻¹] | kcat/Km [1] [M⁻¹ s⁻¹] | Km [2] [µM] | kcat [2] [s⁻¹] | kcat/Km [2] [M⁻¹ s⁻¹] | Km [3] [µM] | kcat [3] [s⁻¹] | kcat/Km [3] [M⁻¹ s⁻¹]
B1 | 8600 ± 1200 | 0.25 | 28.3 | 6950 ± 1894 | 0.0467 | 6.67 | 213 ± 31 | 0.6 ± 0.055 | 2820
B2 | 344 ± 44 | 0.0633 | 185 | – | – | – | 414 ± 63 | 0.283 ± 0.00833 | 683
